T1: full-length MAGEA4 M161D (human, UniProt P43358 1-317, M161D)
T1 construct: MAGEA4, human, Uniprot P43358, full length, with M161D; source: E. coli BL21star, purified (TALON, SEC)
T1 sequence (looked up): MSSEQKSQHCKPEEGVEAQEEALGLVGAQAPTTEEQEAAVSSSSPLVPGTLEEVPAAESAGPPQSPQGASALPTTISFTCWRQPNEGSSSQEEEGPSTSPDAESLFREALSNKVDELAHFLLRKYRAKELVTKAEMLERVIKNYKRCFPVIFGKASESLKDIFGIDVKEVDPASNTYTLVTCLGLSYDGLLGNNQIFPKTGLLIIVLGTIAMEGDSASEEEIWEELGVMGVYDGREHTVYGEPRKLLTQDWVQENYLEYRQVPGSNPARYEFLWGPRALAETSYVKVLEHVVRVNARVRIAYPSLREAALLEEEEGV

B1: full-length MAGEA4 wild type (purified) (natural protein, human, UniProt P43358 1-317, looked up)
chain: MSSEQKSQHCKPEEGVEAQEEALGLVGAQAPTTEEQEAAVSSSSPLVPGTLEEVPAAESAGPPQSPQGASALPTTISFTCWRQPNEGSSSQEEEGPSTSPDAESLFREALSNKVDELAHFLLRKYRAKELVTKAEMLERVIKNYKRCFPVIFGKASESLKMIFGIDVKEVDPASNTYTLVTCLGLSYDGLLGNNQIFPKTGLLIIVLGTIAMEGDSASEEEIWEELGVMGVYDGREHTVYGEPRKLLTQDWVQENYLEYRQVPGSNPARYEFLWGPRALAETSYVKVLEHVVRVNARVRIAYPSLREAALLEEEEGV
notes: MAGEA4, human, Uniprot P43358, full length; Cloned into PET15C; No removal of the His tag is described; the diGly search database lists 'His-tagged MAGEA4'; also called MAGEA4 WT; FL MAGEA4; source: E. coli BL21star, purified (TALON, SEC)
B2: RAD18 R6BD peptide (residues 340-366) (peptide, UniProt Q9NS91 340-366, looked up)
peptide: SKYRKKHKSEFQLLVDQARKGYKKIAG
notes: also called 27 amino acid peptide corresponding to the RAD18 R6BD; source: synthetic peptide, bought: GenScript

How the values were obtained:
Settings in all cases: both partners purified
[1] = molecular target: RAD18/RAD6 complex (purified) (human, UniProt Q9NS91 1-495; P63146 1-152, 2:1 RAD18:RAD6 asymmetric dimer as stated; Zn2+ bound (RING, zinc finger); RAD6 paralogue not given, UBE2B inferred from 2YBF); assay: mass photometry; OneMP mass photometer, SEC buffer; RAD18/RAD6, and RAD18/RAD6/MAGEA4 first cross-linked with BS3 (30 min on ice) and separated on an S200 3.2/300 column, peak fraction measured
RAD18/RAD6 complex (purified), sequence (Q9NS91 whole entry, chain 1 of 2): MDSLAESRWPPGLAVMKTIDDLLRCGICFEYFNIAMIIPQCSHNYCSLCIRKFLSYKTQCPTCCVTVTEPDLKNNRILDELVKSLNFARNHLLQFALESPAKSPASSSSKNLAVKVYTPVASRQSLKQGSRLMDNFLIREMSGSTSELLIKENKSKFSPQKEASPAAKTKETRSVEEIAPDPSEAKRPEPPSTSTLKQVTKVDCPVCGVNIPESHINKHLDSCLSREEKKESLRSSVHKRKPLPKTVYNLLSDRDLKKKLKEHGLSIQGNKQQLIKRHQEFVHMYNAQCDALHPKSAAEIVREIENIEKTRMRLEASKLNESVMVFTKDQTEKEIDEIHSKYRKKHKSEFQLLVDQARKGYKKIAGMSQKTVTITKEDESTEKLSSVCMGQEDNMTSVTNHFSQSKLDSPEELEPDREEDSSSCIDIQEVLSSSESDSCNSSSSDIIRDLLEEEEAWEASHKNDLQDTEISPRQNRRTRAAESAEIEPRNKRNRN
RAD18/RAD6 complex (purified), sequence (B2R503 whole entry, chain 2 of 2, further chain): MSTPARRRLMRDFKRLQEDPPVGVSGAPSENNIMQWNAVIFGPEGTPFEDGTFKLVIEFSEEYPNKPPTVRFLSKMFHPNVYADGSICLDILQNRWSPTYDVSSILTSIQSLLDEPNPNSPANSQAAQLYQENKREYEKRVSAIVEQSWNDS

[2] = molecular target: T2, His-tagged full-length RAD18 wild type (human, UniProt Q9NS91 1-495); assay: cross-linking; XL-MS of RAD18/RAD6 incubated with 5x molar excess of full-length MAGEA4 for 1 h at 4 °C before BS3; trypsin, LC-MS/MS
T2 construct: RAD18, RING E3 ubiquitin ligase, human, Uniprot Q9NS91, residues 1-495, full length; Cloned into PET15C; Dimer in the RAD18/RAD6 complex by AUC and mass photometry; also called RAD18 WT; FL RAD18; source: E. coli BL21star; co-expressed with untagged MAGEA4, in cleared lysate (His pull-down); co-expressed with RAD6 and purified as RAD18/RAD6 (TALON, SEC); not shown: His tag, N-terminal, kept
T2 sequence (Q9NS91 whole entry, the tested form may be a part): as the sequence (Q9NS91 whole entry, chain 1 of 2) above

[3] = molecular target: RAD6 wild type (purified alone) (human, UniProt P63146 1-152, paralogue not given; UBE2B chosen because the paper's RAD6/R6BD reference structure 2YBF is UBE2B); assay: ITC; RAD18 R6BD peptide at 200 µM titrated into protein at 20 µM; MicroCal ITC200, 25 °C; SEC buffer (100 mM NaCl, 20 mM HEPES pH 7.5, 1 mM TCEP)
[4] = molecular target: B1; assay: as above
[5] = molecular target: T1, full-length MAGEA4 M161D; assay: as above

Row | Binder | stoichiometry N [1] | binding result [2] | Kd [3] [nM] | Kd [4] [nM] | Kd [5] [nM]
1 | B1 | 1 MAGEA4 per RAD18/RAD6 complex | binds | – | – | –
2 | B2 | – | – | 25300 | 405 | 1660

Source: PMC10987633, “Structural basis for RAD18 regulation by MAGEA4 and its implications for RING ubiquitin ligase binding by MAGE family proteins” (The EMBO Journal, 2024)
